# Measurements published in article PMC11301259, “The crystal structure of methanogen McrD, a methyl‐coenzyme M reductase‐associated protein” (FEBS Open Bio, 2024).
# B1: Methanomassiliicoccus luminyensis strain B10 McrD (natural protein, UniProt A0AAT8XUI9 1-139, looked up)
# chain: MSTDKFEPVPLPEILIFPNRLLSAETTEKLLNRVYDVPHVRQVNISGEGVPAMVGSGPGKGLPVEHEGRKVINVKGREIELQLLVGRVFVEIDDIDVVEKAIEAIDEICQELLPFGYNLEVGRYSKYRPTVTDYKKGKR
# notes: McrD of Methanomassiliicoccus luminyensis strain B10, NCBI WP_019176772.1; 139 amino acids; cloned with primers from the start codon to the stop codon; in the crystal residues 1-129/130 are modelled, the C-terminal 10 (monomer A) or 9 (monomer B) residues are disordered; 18 (monomer A) and 9 (monomer B) residues of the plasmid-encoded N-terminal tag are seen in the electron density, so the tag …
# Molecular target: the molecule itself
# Assay: crystal structure; McrD at 22 mg/mL crystallised at 4 °C in 0.03 M MgCl2, 0.03 M CaCl2, 0.05 M MES, 0.05 M imidazole pH 6.5, 20% glycerol, 10% PEG 4000, 0.02 M carboxylic acids mix; space group C222(1), two molecules in the asymmetric unit; 1.65 Å; oligomerisation analysis with PISA
protein,measurement,value
B1,stoichiometry N,2
